The values below come from US5811298, “Rep-max protein having anti-oncogenic activity and uses thereof” (Albert Einstein College of Medicine of Yeshiva University, …, dated 1998).

The chains are these.
B1: mouse Mxi-Δrep (other)
chain: MERFPSMPSPRLQHSKPPRRLSRAQKHSSGSSNTSTANRSTHNELEKNRRAHLRLCLKRLKVLIPLGPDCTRHTTLGLLNKAKAHIKKLEEAERKSQHQLENLEREQRFLKRRLEQLQGPQEMERIRMDSIGSTISSDRSDSEREEIEVDVESTEFSHGKADSVSTTSISDLDDHSSLQSVGSDEGYSSASVKLSFAS
B2: mouse Mxi-SR protein (other)
chain: MERVRMINVQRLLEAAEFLERRERECEHGYASSFPSMPSPRLQHSKPPRRLSRAQKHSSGSSNTSTANRSTHNELEKNRRAHLRLCLKRLKVLIPLGPDCTRHTTLGLLNKAKAHIKKLEEAERKSQHQLENLEREQRFLKRRLEQLQGPQEMERIRMDSIGSTISSDRSDSEREEIEVDVESTEFSHGKADSVSTTSISDLDDHSSLQSVGSDEGYSSASVKLSFAS
B3: human MXI protein (other)
chain: MERVKMINVQRLLEAAEFLERRERECEHGYASSFPSMPSPRLQHSKPPRRLSRAQKHSSGSSNTSTANRSTHNELEKNRRAHLRLCLKRLKVLIPLGPDCTRHTTLGLLNKAKAHIKKLEEAERKSQHQLENLEREQRFLKWRLEQLQGPQEMERIRMDSIGSTISSDRSDSEREEIEVDVESTEFSHGKVDNISTTSISDIDDHSSLPSIGSDEGYSSASVKLSFTS
B4: mouse Mxi-SR-pro (other)
chain: MERVRMINVQRLLEAAEFPERRERECEHGYASSFPSMPSPRLQHSKPPRRLSRAQKHSSGSSNTSTANRSTHNELEKNRRAHLRLCLKRLKVLIPLGPDCTRHTTLGLLNKAKAHIKKLEEAERKSQHQLENLEREQRFLKRRLEQLQGPQEMERIRMDSIGSTISSDRSDSEREEIEVDVESTEFSHGKADSVSTTSISDLDDHSSLQSVGSDEGYSSASVKLSFAS
B5: mouse Mxi-WR protein (other)
chain: MPSPRLQHSKPPRRLSRAQKHSSGSSNTSTANRSTHNELEKNRRAHLRLCLKRLKVLIPLGPDCTRHTTLGLLNKAKAHIKKLEEAERKSQHQLENLEREQRFLKRRLEQLQGPQEMERIRMDSIGSTISSDRSDSEREEIEVDVESTEFSHGKADSVSTTSISDLDDHSSLQSVGSDEGYSSASVKLSFAS

For this test, the target named is mouse c-Myc (mouse, UniProt P01108-2). As to the kind of experiment: cell-based or functional assay.
As for B1, the “fold suppression of c-myc/RAS foci formation, REF cooperation assay” value came out at 1.57 fold suppression.

Regarding B2, the “fold suppression of c-myc/RAS foci formation, REF cooperation assay” value stood at 8.1 fold suppression.

In the case of B3, the “fold suppression of c-myc/RAS foci formation, REF cooperation assay” value is 5.3 fold suppression.

For the molecule B4, the “fold suppression of c-myc/RAS foci formation, REF cooperation assay” value was found to be 1.78 fold suppression.

With B5, the “fold suppression of c-myc/RAS foci formation, REF cooperation assay” value amounted to 1.74 fold suppression.
